Test system: T1, PiggyBac transposase with c-myc NLS
T1 sequence: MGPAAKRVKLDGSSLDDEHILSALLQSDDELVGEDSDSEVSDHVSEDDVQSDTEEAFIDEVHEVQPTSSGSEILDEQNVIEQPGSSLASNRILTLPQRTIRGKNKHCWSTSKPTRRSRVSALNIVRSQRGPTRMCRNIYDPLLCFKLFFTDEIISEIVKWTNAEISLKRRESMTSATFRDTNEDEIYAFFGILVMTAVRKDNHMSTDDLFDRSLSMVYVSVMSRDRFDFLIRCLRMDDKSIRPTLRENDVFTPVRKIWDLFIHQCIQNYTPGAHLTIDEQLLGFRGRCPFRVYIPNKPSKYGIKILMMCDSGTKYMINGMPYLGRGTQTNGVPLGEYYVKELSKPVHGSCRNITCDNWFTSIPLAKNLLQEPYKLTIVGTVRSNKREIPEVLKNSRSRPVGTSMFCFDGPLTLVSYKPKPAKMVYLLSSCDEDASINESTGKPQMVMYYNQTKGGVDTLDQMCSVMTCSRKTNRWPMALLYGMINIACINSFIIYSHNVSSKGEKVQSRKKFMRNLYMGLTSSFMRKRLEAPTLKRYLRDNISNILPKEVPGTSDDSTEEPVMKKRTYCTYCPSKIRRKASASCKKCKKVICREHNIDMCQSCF
Test: cell_activity
Conditions: pNB328-EGFP in Jurkat cells after 3 passages; both terminal repeats present together; K562 40.54%, primary T 56.9%, mouse ES 73.12%

Sequence | activity (% EGFP positive cells)
GCATGCGTCAATTTTACGCAGACTATCTTTCTAGGGTTAA (double strand) [PiggyBac 3'-terminal repeat] | 36.4
TTAACCCTAGAAAGATAATCATATTGTGACGTACGTTAAAGATAATCATGCGTAAAATTGACGCATG (double strand) [PiggyBac 5'-terminal repeat] | 36.4
